Consider two molecules from article PMC6532066 (Nature, 2019).

Test in all cases: cryo-EM structure
The target of assay [1] is T1, LptG (E. coli K-12, UniProt P0ADC6).
T1 sequence: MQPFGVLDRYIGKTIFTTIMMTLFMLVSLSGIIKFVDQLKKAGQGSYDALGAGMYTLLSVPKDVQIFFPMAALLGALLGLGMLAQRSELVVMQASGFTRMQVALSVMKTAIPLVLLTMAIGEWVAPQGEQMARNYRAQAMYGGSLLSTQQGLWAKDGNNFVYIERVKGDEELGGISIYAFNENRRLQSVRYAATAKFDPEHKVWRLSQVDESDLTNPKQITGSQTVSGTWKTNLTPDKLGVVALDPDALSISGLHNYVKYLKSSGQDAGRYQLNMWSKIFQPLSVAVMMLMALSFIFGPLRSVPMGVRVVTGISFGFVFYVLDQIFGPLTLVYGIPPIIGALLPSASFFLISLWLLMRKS

In assay [2] the target is T2, LptF (E. coli K-12, UniProt P0AF98).
T2 sequence: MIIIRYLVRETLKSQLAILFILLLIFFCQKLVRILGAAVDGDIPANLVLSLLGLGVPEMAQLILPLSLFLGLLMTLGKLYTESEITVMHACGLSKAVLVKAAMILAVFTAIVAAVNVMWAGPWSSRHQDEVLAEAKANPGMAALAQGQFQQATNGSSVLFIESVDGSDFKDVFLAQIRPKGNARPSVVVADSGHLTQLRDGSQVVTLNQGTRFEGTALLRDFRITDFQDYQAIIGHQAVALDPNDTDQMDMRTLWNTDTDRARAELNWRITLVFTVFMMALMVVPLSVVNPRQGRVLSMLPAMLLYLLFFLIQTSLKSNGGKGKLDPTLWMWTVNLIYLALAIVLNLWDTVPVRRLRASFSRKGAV

In assay [3] the target is T2, LptF. The source holds these as a separate data set.

Read-outs that look alike come from different tables or passages of the source.

B1: LptB (natural protein)
chain: MATLTAKNLAKAYKGRRVVEDVSLTVNSGEIVGLLGPNGAGKTTTFYMVVGIVPRDAGNIIIDDDDISLLPLHARARRGIGYLPQEASIFRRLSVYDNLMAVLQIRDDLSAEQREDRANELMEEFHIEHLRDSMGQSLSGGERRRVEIARALAANPKFILLDEPFAGVDPISVIDIKRIIEHLRDSGLGVLITDHNVRETLAVCERAYIVSQGHLIAHGTPTEILQDEHVKRVYLGEDFRL
As for B1, the binding result in assay [1] and in assay [2] was “binds” throughout.

B2: LptC (natural protein)
chain: MSKARRWVIIVLSLAVLVMIGINMAEKDDTAQVVVNNNDPTYKSEHTDTLVYNPEGALSYRLIAQHVEYYSDQAVSWFTQPVLTTFDKDKIPTWSVKADKAKLTNDRMLYLYGHVEVNALVPDSQLRRITTDNAQINLVTQDVTSEDLVTLYGTTFNSSGLKMRGNLRSKNAELIEKVRTSYEIQNKQTQP
B2: in assay [3], the binding result was “binds”.
